Measurements from patent US20180057536.

Legend:
[1] = test system: T1, Selective delivery molecule 10 (SDM-10)
T1 sequence: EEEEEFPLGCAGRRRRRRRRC

[2] = test system: T2, Selective delivery molecule 9 (SDM-9)
T2 sequence: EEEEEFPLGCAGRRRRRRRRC

Substance	Cy5 fluorescence enhancement after protease cleavage (dequenching), 1 uM SDM-10 in TCNB buffer [1]	fluorescent cleavage fragment on polyacrylamide gel (1 nM MMP-9, 1 uM SDM-10, 24 h, 37 C) [1]	Cy5 donor emission after protease cleavage (FRET disruption), 1 uM SDM-9 in TCNB buffer [2]	Cy7 acceptor emission after protease cleavage (FRET disruption), 1 uM SDM-9 in TCNB buffer [2]
MMP-9	the fluorescence was enhanced >100-fold upon protease cleavage	After cleavage by MMP-9 the fragment containing the fluorophore is dequenched (becoming highly fluorescent) and runs near the bottom of the gel	–	–
matrix metalloproteinase-2 (MMP-2)	–	–	a large 8-fold increase the Cy5 donor emission	2-fold decrease in the Cy7 emission
